Measured values: the RNAGym collection of RNA variant scans (doi:10.7554/elife.80360)

B1: Twister Ribozyme (parent)
chain: AACACUGCCAAUGCCGGUCCCAAGCCCGGAUAAAAGUGGAGGGGGCGG

Variants of: B1
Test: self-cleavage, relative activity (ratio to wild type); higher = more cleavage; co-transcriptional

Row | Variant | self-cleavage
1 | AACACUGCCAAUACCGGUCCCAAGCCCGGAUAAAGGUGGAGGGGGCGG [G13A A35G] | 0.203
2 | AACACUGCCAAGGCCGGUCCCAAGCCCGGAUAAAAGUGGACGGGGCGG [U12G G41C] | 0.315
3 | AACACUGCCAAGGCCGGUCCCAAGCCCGGAUAAAAGUGGAAGGGGCGG [U12G G41A] | 0.658
4 | AACACUGCCAAGGCCGGUCCCAAGCCCGGAUAAAAGUGGAUGGGGCGG [U12G G41U] | 0.783
5 | AACACUGCCAAUACCGGUCCCAAGCCCGGAUAAAAGUGCAGGGGGCGG [G13A G39C] | 0.168
6 | AACACUGCCAAGGCCGGUCCCAAGUCCGGAUAAAAGUGGAGGGGGCGG [U12G C25U] | 0.675
7 | AACACUGCCAAGGCCGGUCCCAAGACCGGAUAAAAGUGGAGGGGGCGG [U12G C25A] | 0.256
8 | AACACUGCCAAGGCCGGCCCCAAGCCCGGAUAAAAGUGGAGGGGGCGG [U12G U18C] | 0.437
9 | AACACUGCCAAGGCCGGACCCAAGCCCGGAUAAAAGUGGAGGGGGCGG [U12G U18A] | 0.46
10 | AACACUGCCAAGGCCGGUCCCAAUCCCGGAUAAAAGUGGAGGGGGCGG [U12G G24U] | 0.167
11 | AACACUGCCAAGGCCGGUUCCAAGCCCGGAUAAAAGUGGAGGGGGCGG [U12G C19U] | 0.998
12 | AACACUGCCAAGGCCGGUCCCAAGCCCGGAUAAAAGUAGAGGGGGCGG [U12G G38A] | 0.771
13 | AACACUGCCAAGGCCGGUCCCAAGCCCGUAUAAAAGUGGAGGGGGCGG [U12G G29U] | 0.823
14 | AACACUGCCAAUACCGGUCCCAAGCCCGGAUAAUAGUGGAGGGGGCGG [G13A A34U] | 0.64
15 | AACACUGCCAAGGCCGGUCCCAAGCCCGGCUAAAAGUGGAGGGGGCGG [U12G A30C] | 0.969
16 | AACACUGCCAAUACCGGUCCCAACCCCGGAUAAAAGUGGAGGGGGCGG [G13A G24C] | 0.129
17 | AACACUGCCAAUACCGGUCCCAAUCCCGGAUAAAAGUGGAGGGGGCGG [G13A G24U] | 0.13
18 | AACACUGCCAAUACCGGUCCCAAACCCGGAUAAAAGUGGAGGGGGCGG [G13A G24A] | 0.0967
19 | AACACUGCCAAGGCCGAUCCCAAGCCCGGAUAAAAGUGGAGGGGGCGG [U12G G17A] | 0.577
20 | AACACUGCCAAGGCCGCUCCCAAGCCCGGAUAAAAGUGGAGGGGGCGG [U12G G17C] | 0.0934
21 | AACACUGCCAAUACCGGUCCUAAGCCCGGAUAAAAGUGGAGGGGGCGG [G13A C21U] | 0.0803
22 | AACACUGCCAAUACCGGUCCGAAGCCCGGAUAAAAGUGGAGGGGGCGG [G13A C21G] | 0.105
23 | AACACUGCCAAUACCGGUCCCAAGCCCGGAUAAAAUUGGAGGGGGCGG [G13A G36U] | 0.139
24 | AACACUGCCAAUACCGGUCCCAAGCCCGGAUAAAAAUGGAGGGGGCGG [G13A G36A] | 0.162
25 | AACACUGCCAAUACCGGUUCCAAGCCCGGAUAAAAGUGGAGGGGGCGG [G13A C19U] | 0.284
26 | AACACUGCCAAUACCGGUACCAAGCCCGGAUAAAAGUGGAGGGGGCGG [G13A C19A] | 0.113
27 | AACACUGCCAAGGCCCGUCCCAAGCCCGGAUAAAAGUGGAGGGGGCGG [U12G G16C] | 0.753

Row | Variant | self-cleavage
28 | AACACUGCCAAUACCGGUCCCCAGCCCGGAUAAAAGUGGAGGGGGCGG [G13A A22C] | 1.05
29 | AACACUGCCAAUACCGGUCCCUAGCCCGGAUAAAAGUGGAGGGGGCGG [G13A A22U] | 0.424
30 | AACACUGCCAAGGCCGGUCCCUAGCCCGGAUAAAAGUGGAGGGGGCGG [U12G A22U] | 0.706
31 | AACACUGCCAAGGCCGGUCCCCAGCCCGGAUAAAAGUGGAGGGGGCGG [U12G A22C] | 1.13
32 | AACACUGCCAAUACCGGUCCCAAGCGCGGAUAAAAGUGGAGGGGGCGG [G13A C26G] | 0.0899
33 | AACACUGCCAAUACCGGUCCCAAGCACGGAUAAAAGUGGAGGGGGCGG [G13A C26A] | 0.095
34 | AACACUGCCAAGGCCGGUCCCAAGCUCGGAUAAAAGUGGAGGGGGCGG [U12G C26U] | 0.407
35 | AACACUGCCAAGGCCGGUCCCAAGCGCGGAUAAAAGUGGAGGGGGCGG [U12G C26G] | 0.451
36 | AACACUGCCAAUACCGGUCCCAAGCCCGGAUAAAAGUGGAGGGGGUGG [G13A C46U] | 0.931
37 | AACACUGCCAAUACCGGUCCCAAGCCCGGGUAAAAGUGGAGGGGGCGG [G13A A30G] | 0.742
38 | AACACUGCCAAGGCCGGUCCCAAGCCCGGAUAAAAGUGGAGGGGGCCG [U12G G47C] | 0.528
39 | AACACUGCCAAUACCGGUCCCAAGCCCGGACAAAAGUGGAGGGGGCGG [G13A U31C] | 0.962
40 | AACACUGCCAAUACCGGUCCCACGCCCGGAUAAAAGUGGAGGGGGCGG [G13A A23C] | 0.093
41 | AACACUGCCAAUACCUGUCCCAAGCCCGGAUAAAAGUGGAGGGGGCGG [G13A G16U] | 0.168
42 | AACACUGCCAAUACCGGUCCCAAGCCCGGAUAAAAGUCGAGGGGGCGG [G13A G38C] | 0.78
43 | AACACUGCCAAUACCGGUCCCAAGCCCGGAUAAAAGUAGAGGGGGCGG [G13A G38A] | 0.581
44 | AACACUGCCAAGGCCGGUCCCAAGCCCGGAUAAAAGUGGAGAGGGCGG [U12G G42A] | 0.494
45 | AACACUGCCAAGGCCGGUCCCAAGCCCGGAUAAAAGUGGAGUGGGCGG [U12G G42U] | 0.531
46 | AACACUGCCAAUACCGAUCCCAAGCCCGGAUAAAAGUGGAGGGGGCGG [G13A G17A] | 0.121
47 | AACACUGCCAAGGCCGGUCCCAAGCCCGGAUAAAAGUGGUGGGGGCGG [U12G A40U] | 0.279
48 | AACACUGCCAAGGCCGGUCCCAAGCCCGGAUAAAAGUGGCGGGGGCGG [U12G A40C] | 0.261
49 | AACACUGCCAAGGCCGGUCGCAAGCCCGGAUAAAAGUGGAGGGGGCGG [U12G C20G] | 0.249
50 | AACACUGCCAAGGCCGGUCUCAAGCCCGGAUAAAAGUGGAGGGGGCGG [U12G C20U] | 0.725
51 | AACACUGCCAAUACCGGUCCCAAGCCUGGAUAAAAGUGGAGGGGGCGG [G13A C27U] | 0.482
52 | AACACUGCCAAUACCGGUCCCAAGCCAGGAUAAAAGUGGAGGGGGCGG [G13A C27A] | 0.0875
53 | AACACUGCCAAGGCCGGUCCCAAGCCCGGAUAAACGUGGAGGGGGCGG [U12G A35C] | 0.89
54 | AACACUGCCAAGGCCGGUCCCAAGCCCGGAUAAAUGUGGAGGGGGCGG [U12G A35U] | 0.848
